In the Immune Epitope Database (IEDB):

Tests used:
HLA-B*15:09 = assay: IEDB peptide-MHC binding, purified MHC/direct/fluorescence; filed as Kd, often an IC50 or EC50 that approximates it; ≥ and ≤ were set here for values at or beyond the usual limits of such assays
HLA-B*08:02 = assay: as above; details: source organism: Cryptosporidium parvum Iowa II
HLA-B*27:05 = assay: as above
HLA-B*58:01 = assay: as above
HLA-A*03:01 = assay: as above
HLA-B*44:02 = assay: as above
HLA-A*02:01 [1] = assay: as above
HLA-B*15:01 = assay: as above
HLA-A*69:01 [2] = assay: as above
HLA-B*40:01 = assay: as above
HLA-A*24:02 = assay: as above
HLA-B*07:02 = assay: as above
HLA-B*46:01 [3] = assay: as above; details: source organism: Cryptosporidium parvum
HLA-A*01:01 = assay: as above
HLA-A*02:03 = assay: IEDB peptide-MHC binding, purified MHC/competitive/fluorescence; filed as Kd, often an IC50 or EC50 that approximates it; ≥ and ≤ were set here for values at or beyond the usual limits of such assays; details: source organism: Cryptosporidium parvum Iowa II
HLA-B*39:01 = assay: as above; details: source organism: Cryptosporidium parvum Iowa II
HLA-A*29:02 = assay: as above; details: source organism: Cryptosporidium parvum Iowa II
HLA-B*51:01 = assay: as above; details: source organism: Cryptosporidium parvum Iowa II
HLA-A*26:01 = assay: as above; details: source organism: Cryptosporidium parvum Iowa II
HLA-A*02:12 = assay: as above; details: source organism: Cryptosporidium parvum Iowa II
HLA-B*18:01 [4] = assay: as above; details: source organism: Cryptosporidium parvum Iowa II
HLA-A*02:01 [5] = assay: as above; details: source organism: Cryptosporidium parvum Iowa II
HLA-A*02:19 = assay: as above; details: source organism: Cryptosporidium parvum Iowa II
HLA-B*57:01 = assay: as above; details: source organism: Cryptosporidium parvum Iowa II
HLA-A*02:16 = assay: as above; details: source organism: Cryptosporidium parvum Iowa II
HLA-A*69:01 [6] = assay: as above; details: source organism: Cryptosporidium parvum Iowa II
HLA-B*27:03 = assay: as above; details: source organism: Cryptosporidium parvum Iowa II
HLA-B*46:01 [7] = assay: as above; details: source organism: Cryptosporidium parvum Iowa II
HLA-A*68:02 = assay: as above; details: source organism: Cryptosporidium parvum Iowa II
HLA-A*11:01 = assay: IEDB peptide-MHC binding, purified MHC/direct/fluorescence; filed as Kd, often an IC50 or EC50 that approximates it; ≥ and ≤ were set here for values at or beyond the usual limits of such assays; details: source organism: Giardia lamblia ATCC 50803
HLA-B*18:01 [8] = assay: as above; details: source organism: Giardia lamblia ATCC 50803
HLA-B*08:01 = assay: as above; details: source organism: Giardia lamblia ATCC 50803
[9] = source organism: Cryptosporidium parvum
[10] = source organism: Giardia lamblia ATCC 50803

With NTSTCFQEY the Kd (HLA-B*15:09; source organism: Cryptosporidium parvum Iowa II) was no less than 20 µM, the Kd (HLA-B*08:02) was no less than 20 µM and the Kd (HLA-B*27:05; [9]) was no less than 20 µM. For the same sequence, the Kd (HLA-B*58:01; [9]) was no less than 20 µM, the Kd (HLA-A*03:01; [9]) was no less than 20 µM and the Kd (HLA-B*44:02; [9]) was no less than 20 µM. The Kd (HLA-A*02:01 [1]; [9]) was no less than 20 µM, the Kd (HLA-B*15:01; [9]) was 0.592 µM and the Kd (HLA-A*69:01 [2]; [9]) was no less than 20 µM. For the same sequence, the Kd (HLA-B*40:01; [9]) was no less than 20 µM, the Kd (HLA-A*24:02; [9]) was no less than 20 µM and the Kd (HLA-B*07:02; [9]) was no less than 20 µM. For the same sequence, the Kd (HLA-B*46:01 [3]) was no less than 20 µM and the Kd (HLA-A*01:01; [9]) was 0.0305 µM.

KSFSAGMFH was tested, and the Kd (HLA-A*02:03) was no less than 20 µM, the Kd (HLA-B*39:01) was no less than 20 µM and the Kd (HLA-A*29:02) was no less than 20 µM. It also gave a Kd (HLA-B*51:01) of no less than 20 µM, a Kd (HLA-A*26:01) of no less than 20 µM and a Kd (HLA-A*02:12) of no less than 20 µM. The Kd (HLA-B*18:01 [4]) was no less than 20 µM, the Kd (HLA-A*02:01 [5]) was no less than 20 µM and the Kd (HLA-A*02:19) was no less than 20 µM. The Kd (HLA-B*57:01) was 0.574 µM, the Kd (HLA-A*02:16) was no less than 20 µM and the Kd (HLA-A*69:01 [6]) was no less than 20 µM. For the same sequence, the Kd (HLA-B*27:03) was no less than 20 µM, the Kd (HLA-B*46:01 [7]) was no less than 20 µM and the Kd (HLA-A*68:02) was no less than 20 µM.

RYMRVYNLW was tested, and the Kd (HLA-A*24:02; [10]) was 0.002 µM.

Work on IFKNLTKPL yielded a Kd (HLA-B*15:09; [10]) of no less than 20 µM, a Kd (HLA-A*11:01) of no less than 20 µM and a Kd (HLA-B*27:05; [10]) of no less than 20 µM. The Kd (HLA-B*58:01; [10]) was no less than 20 µM, the Kd (HLA-B*18:01 [8]) was no less than 20 µM and the Kd (HLA-A*03:01; [10]) was no less than 20 µM. The Kd (HLA-B*08:01) was 0.774 µM, the Kd (HLA-B*44:02; [10]) was no less than 20 µM and the Kd (HLA-A*02:01 [1]; [10]) was no less than 20 µM. For the same sequence, the Kd (HLA-B*15:01; [10]) was 0.757 µM, the Kd (HLA-A*69:01 [2]; [10]) was no less than 20 µM and the Kd (HLA-B*40:01; [10]) was no less than 20 µM. For the same sequence, the Kd (HLA-A*24:02; [10]) was no less than 20 µM, the Kd (HLA-B*07:02; [10]) was no less than 20 µM and the Kd (HLA-A*01:01; [10]) was no less than 20 µM.
